Data from article doi:10.1101/2020.05.18.103002 (bioRxiv, 2020).
Where no end group is shown, it is not given here.

Columns and labels:
Assay in all cases: fluorescence polarisation
[1] = molecular target: FITC-conjugated PAK1 peptide (…)
[2] = molecular target: FITC-conjugated CD3ε peptide (…)
[3] = molecular target: NCK2 full length recombinant protein (WT, tag-free) (mouse, UniProt O55033 1-380)

Molecule	fold decrease of binding against WT NCK2 [2] [fold]	binding result [3]	further results
NCK2 3|1|2 full length recombinant protein (SH3-shuffled, tag-free) (from UniProt O55033)			fold decrease of binding against WT NCK2 [1]: 2 fold
NCK2 2|3|1 full length recombinant protein (SH3-shuffled, tag-free) (from UniProt O55033)	2		
NCK2 3|2|1 full length recombinant protein (SH3-shuffled, tag-free) (from UniProt O55033)	2		
RGQNKERPPPVPNPDY (also: FITC-conjugated, site not given here) [FITC-conjugated CD3ε peptide (RGQNKERPPPVPNPDY)]		binds	
DIQDKPPAPPMRNTST (also: FITC-conjugated, site not given here) [FITC-conjugated PAK1 peptide (DIQDKPPAPPMRNTST)]		binds	
